Measured values: EP2468858B1

Molecular target: FGF-21 receptor on differentiated 3T3-L1 fat cells (mouse)
Assay: cell-based or functional assay

Substance: recombinant human FGF-21 (from Chongqing Fagen Biomedical Inc.) (from UniProt Q9NSA1 29-209) (ligand)
- Glucose uptake CPM of 3T3-L1 fat cells at 0 nM protein (baseline): 1880 CPM
- Glucose uptake CPM of 3T3-L1 fat cells at 0.03 nM protein: 1800 CPM
- Glucose uptake CPM of 3T3-L1 fat cells at 0.15 nM protein: 2110 CPM
- Glucose uptake CPM of 3T3-L1 fat cells at 0.8 nM protein: 2200 CPM
- Glucose uptake CPM of 3T3-L1 fat cells at 4 nM protein: 3300 CPM
- Glucose uptake CPM of 3T3-L1 fat cells at 20 nM protein: 5130 CPM
- Glucose uptake CPM of 3T3-L1 fat cells at 100 nM protein: 5320 CPM
